Experiment: soluble on expression in E. coli; label from the status in PepcDB or PDB records

Soluble on expression in E. coli, not soluble:
MGSDKIHHHHHHMAAGCTTPMERRQANGNDEYVNAQTTAPLKVPEGLKSPNYSREYDIPTLGAKANRELVGKNLDIRPPLQVLPMAEGTRVEEGSDNVKVIVESFDNSLDLKQEIFGLLKDHLQSRNIEIVKEDFASGTLETGWIETQEVLESSLWGSDKVFNLKQRYQYQVEVRPHGRTGAVIINLVDHQESYDGDDLKTALSADDKRRYAIDMLNNSIAYMAVKREQAIKAKRVRESLGIGVELVDGAEEGDAFYLAQGDSIRYGLT, MGSDKIHHHHHHMAATSNQIKSKVWDNKQEYHLTIESLRMLLENRIPLIRLKEFATPQECEILVAQAELFNFDCYQNVNPKIERIGITVFEYNRISKAAYFQAVERTTKLRDCIMAASFNPLERLMVKIQECTGATVRIASEPLYGSYYAGLIRKIEQGTQLHIDYAPLEQSKWEIGTVIYQLSWNLYLKFSPNNHGQTRIYDRQWQPGDEQYKLDSYGYGDTVIADADTIAFQPYVGDVFIFNTRNYHTVEPMDGQRVTFTSAIGLLPNGEIILWS, MGSDKIHHHHHHMAAVALDQYLASVLKSSASDKNEIKLEAGNPDFDLFTIYLENHNTGIHRYRMDVSTILYVAKGTVTIKSAEKVINMRTGNVLLLTEGCKYEVSGQNDDTVLAKLKFAPGFEYRKYFNDFSYKGNRENKIIEQISDSLENEHVLWLKNNQITSASQVMQHIIGGYLDDELFAKALIQAELTAMLIISIRTQRMATPTNLDKTKFEKKSLDNYIDNHFADISLADAAKYFGFNPNYFSNMVKAKTGKSFVDHVGERRMQEARELLAQPDISLKEIISRVGYSSKSFFYKKFNQYYNMTPAAMRKELFRQANINLR, MGSDKIHHHHHHMAAVDLEKLRASGAGKAIGVLTSGGDAQGMNAAVRAVTRMGIYVGAKVFLIYEGYEGLVEGGENIKQANWLSVSNIIQLGGTIIGSARCKAFTTREGRRAAAYNLVQHGITNLCVIGGDGSLTGANIFRSEWGSLLEELVAEGKISETTARTYSHLNIAGLVGSIDNDFCGTDMTIGTDSALHRIMEVIDAITTTAQSHQRTFVLEVMGRHCGYLALVSALASGADWLFIPEAPPEDGWENFMCERLGETRSRGSRLNIIIIAEGAIDRNGKPISSSYVKDLVVQRLGFDTRVTVLGHVQRGGTPSAFDRILSSKMGMEAVMALLEATPDTPACVVTLSGNQSVRLPLMECVQMTKEVQKAMDDKRFDEATQLRGGSFENNWNIYKLLAHQKPPKEKSNFSLAILNVGAPAAGMNAAVRSAVRTGISHGHTVYVVHDGFEGLAKGQVQEVGWHDVAGWLGRGGSMLGTKRTLPKGQLESIVENIRIYGIHALLVVGGFEAYEGVLQLVEARGRYEELCIVMCVIPATISNNVPGTDFSLGSDTAVNAAMESCDRIKQSASGTKRRVFIVETMGGYCGYLATVTGIAVGADAAYVFEDPFNIHDLKVNVEHMTEKMKTDIQRGLVLRNEKCHDYYTTEFLYNLYSSEGKGVFDCRTNVLGHLQQGGAPTPFDRNYGTKLGVKAMLWLSEKLREVYRKGRVFANAPDSACVIGLKKKAVAFSPVTELKKDTDFEHRMPREQWWLSLRLMLKMLAQYRISMAAYVSGELEHVTRRTLSMDKGF, MGSDKIHHHHHHMADFQGETEMTAEVFDPRALRDAFGAFATGVTVVTASDAAGKPIGFTANSFTSVSLDPPLLLVCLAKSSRNYESMTSAGRFAINVLSETQKDVSNTFARPVEDRFAAVDWRLGRDGCPIFSDVAAWFECSMQDIIEAGDHVIIIGRVTAFENSGLNGLGYARGGYFTPRLAGKAVSAAVEGEIRLGAVLEQQGAVFLAGNETLSLPNCTVEGGDPARTLAAYLEQLTGLNVTIGFLYSVYEDKSDGRQNIVYHALASDGAPRQGRFLRPAELAAAKFSSSATADIINRFVLESSIGNFGIYFGDETGGTVHPIANKDAHS, MGSDKIHHHHHHMADRASEAELIKLPVSKLTRGMFVAAIENNGKVAVANAGQIKSRETIAKLVKSGIHHVWVDAERSSDESGLKPKSAQGSAAPAAGAVRPSRANRDLRQTQAKKLLHEAKELIRKVLSETFEGKAIEVKPFEALADNMIESIMLDDDALKCVSALRDKDAYLLEHSVNVAFLLVTFGKYLKLDRETLKQMAVGGVLHDIGKIKVDNKILHKPGKLTPEEFEHMKLHQFYAMDIMSEASALSQISKDVCLMHHEKLDGRGYPRGLKGDEIPLHGRMSCIVDIFDALTATRCYKEAMSPAAAFKILLSLTPFHLDTDLVYEFIRCIGVYPVGSLVELSDGRVGIVWESKDRDALSPVVKCFYSLKHKRYTEVNFVDLLKSDLNIERGVSPSSLDVDPKPFY, MGSDKIHHHHHHMADRMQWANALSTRPSLEAAVTDVVQRAVSTLTAPADLGLVFISSAFASEYSRVLPLLAEQLSVPVMIGCSGGGVIGTAASGQTQELEAEAALSLTLAHLPGVNLQVFHVLGEELPDLDSPPDTWINLIGVPPSPTPHFILLSSAFSSGINDLLQGLDFAYPGSVILGGQASVGGMGGRLALFCNGSLHREGTVGLALSGNIVLEPIVAQGCRPIGEPLQVTKAERNIILELDEKVPLVVLRDLIASLSEKERALAQHSLFVGVAMDEFKLSLQQGDFLIRSILGVDPSGGAIAIGDLVRPGQRLQFHLRDSQASAEELEFLLERYQTKPEFDNSAVGALMFSCVGRGEGLYGKPNFDSELFKRYIQDVPVGGFFCGGEIGPVGGRTFLHGYTSVFGICRELSVED, MGSDKIHHHHHHMAEDLTPEGGDRAPSKDGSVPAYAGRQSADPGWEWGKIRGDFWKHRNEKPLYSIDGSNVDKYAEQLTPGQVQLVKQKKGYRMDVYPSHRECQASDFVAQNSKANLTGAKLDSTGEQLQTAILPGVPFPQPKNGAEAMLNYLMRYRGEGIEWPSVVTTVSPRPGSSDWIDAISTATQYFPASKQGKRTPHDVDQLSSATFFKMESPPALAGQAFVQRQFFNKDPETFYYFPGQRRVRRMPAYTHDAPAIGFENQYLIDEANMFFGAIDRFDWKLAGKKEMIVPYNAFGMYKFNDKLHDVVTPDGIAAANRRYEMHRVWVVEATLKPSARHVASKKVFYLDEDSWLALVANDYDAQGKLWRVRESYPIPVWELGGACDNEPFAQYDLINGRYVTDQSTIGQGKDIRWYEKTNDPRFKPDFFTSESLRSVSER, MGSDKIHHHHHHMAENFLTQDEVDALLNFENGSKHQQTAQKENEVSYPGGVRPYNMATQERIVRGRMPALEIINARFANSLQIGLYNFLRRGVDISAGSIKTIKYSEFTRSLVVPANINLVSMKPLRGTALFTIDPNLIFLIVDNMFGGDGRFHTRVEGREFTLTEQGIIRRLLDVLFEHYEKAWQSVYPVKFEYIRAEMNPQFANIVTPTDIVVASAFELNLGGNRGEFYTCIPYTMLEPIRDLLNNSMQEDRAEVDKNWIKSLTRQVQGAEIEIIANLGQTQVTLHQILNMQEGDVIALDIPDTVVAIANNVPIMDCHYGILNGHYALKVKTVRSPNETD, MGSDKIHHHHHHMAEPSGLLKKGEKMDSMLCTKRTLLSDEFQHWARLFMKTGKLHRKFWEWCFIAQALKEHDMLAPGRIGLGFGVGEEPLSSCFASFGASILATDLDLQNSSVAGWTKTSQHADNKGKLNKLGICPGWEFENLVEFEFANMNSIPKRYTGKFDFVWSSCSLEHLGSIEKGVTFILNSINCLKPGGVAVHTTEFNVSPNSDTIETGPTVLFRRKEIEDIIERVRSFGCRAHINWDHGDLPEDYYIDIPPYSHNPHLKLRISKYVVTSIGLVISK, MGSDKIHHHHHHMAFRVILIENEVTIKVKLNNLIITKCGEDIWIPLDDISMIVLDNLASNLSTRLMCQLAEQGIGLMLYNQQHLPTGFYSAYDNHSRASKVIGFQIDKEQDYYGKLWQQIVKIKIENQAKAYQIMTRDSDGPEKIIEFSKNILIGDKSNREAHAAKVYFNLLMGTSFSRGNEDILLNSGLDYGYAVIRGYIARACVGYGLNTQIGIHHKSEYNRFNLVDDLMEPLRPIVDIVAYNSMKNDKYFTPEHRRKLVSILNMKIMYREKKMYMCNMIENYIEQYASLIMKRTDNIVFPDVYNLIGEEYG

Source: the DeepSol protein solubility set
